T1: human IL6R (human, UniProt P08887 20-358, limits assumed)
T1 construct: Antigen of the Biacore experiments
T1 sequence (looked up): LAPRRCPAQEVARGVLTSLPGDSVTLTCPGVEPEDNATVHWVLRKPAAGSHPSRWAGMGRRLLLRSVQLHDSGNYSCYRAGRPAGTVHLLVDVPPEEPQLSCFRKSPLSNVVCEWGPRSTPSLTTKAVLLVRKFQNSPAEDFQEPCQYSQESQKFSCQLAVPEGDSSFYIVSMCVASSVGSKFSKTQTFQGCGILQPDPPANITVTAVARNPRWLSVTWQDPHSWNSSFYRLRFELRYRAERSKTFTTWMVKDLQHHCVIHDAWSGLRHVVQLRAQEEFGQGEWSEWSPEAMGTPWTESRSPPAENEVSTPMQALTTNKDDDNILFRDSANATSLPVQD


Tests used:
[1] = target: T1, human IL6R; experiment: SPR (Biacore), periplasmic extract
Description: The oligos were dissolved in H₂O and subsequently pooled at a final concentration of 0.4 uM for each oligo. 5 and 1 ul of this mixture was used for assembly PCR in a 50 ul reaction volume. Full-length product was purified using the Qiagen PCR purification kit. The purified PCR product was then digested with SfiI and BsteEII and ligated into the corresponding sites of expression vector pAX51. E. coli TG1 cells were transformed with 2 ul of ligation mixture and plated on LB agar+100 ug/ml ampicillin+2% glucose. Plates were incubated overnight at 37° C. Individual colonies were picked and grown overnight in 2×YT+100 ug/ml ampicillin+2% glucose. Cloned Nanobody genes were amplified directly from these cultures with M13 forward and reverse primers. PCR products were purified and subsequently sequenced. In parallel the same panel of Nanobodies was expressed at 1 ml scale for 4 hours at 37° C. Periplasmic extracts were prepared and without further purification analyzed on Biacore for their ability to bind human IL6R.

[2] = target: T1, human IL6R; experiment: SPR (Biacore), periplasmic extract

| koff [1] | binding result [2] | Binder |
| --- | --- | --- |
| 0.00189 s⁻¹ | – | 32C9PMP1_F8 (VHH, name in Kabat numbering, Humanized 32C9 variant) VHH: EVQLVESGGGLVQAGGSLRLSCAASGFTFSDYDIGWFRQAPGKEREWVSGISSSDGNTYYADSVKGRFTISSDNAKNTLYLQMNSLKAEDTAVYYCAAEPPDSSWYLDGSPEFFKYWGQGTLVTVSS |
| 0.000204 s⁻¹ | – | 32C9PMP1_G11 (VHH, name in Kabat numbering, Humanized 32C9 variant) VHH: EVQLVESGGGLVQAGGSLRLSCAASGFTFSDYDIGWFRQAPGKGREGVSGISSSDGNTYYADSVKGRFTISSDNAKNTVYLQMNSLRPEDTAVYYCAAEPPDSSWYLDGSPEFFKYWGQGTLVTVSS |
| 0.000308 s⁻¹ | – | 32C9PMP2_B3 (VHH, name in Kabat numbering, Humanized 32C9 variant) VHH: EVQLVESGGGLVQAGGSLRLSCAASGFTFSDYDIGWFRQAPGKEREGVSGISSSDGNTYYADSVKGRFTISRDNAKNTVYLQMNSLKAEDTAVYYCAAEPPDSSWYLDGSPEFFKYWGQGTLVTVSS |
| 0.0029 s⁻¹ | – | 32C9PMP2_A12 (VHH, name in Kabat numbering, Humanized 32C9 variant) VHH: EVQLVESGGGLVQAGGSLRLSCAASGFTFDDYDIGWFRQAPGKELEGVSGISSSDGNTYYADSVKGRFTISSDNAKNTVYLQMNSLKAEDTAVYYCAAEPPDSSWYLDGSPEFFKYWGQGTQVTVSS |
| 0.000187 s⁻¹ | – | 32C9PMP1_H4 (VHH, name in Kabat numbering, Humanized 32C9 variant) VHH: EVQLVESGGGLVQPGGSLRLSCAASGFTFSDYDIGWFRQAPGKGREGVSGISSSDGNTYYADSVKGRFTISSDNAKNTLYLQMNSLKAEDTAVYYCAAEPPDSSWYLDGSPEFFKYWGQGTQVTVSS |
| – | no binding | 32C9PMP2_D9 (VHH, name in Kabat numbering, Humanized 32C9 variant) VHH: EVQLVESGGGLVQPGGSLRLSCAASGFTFSDYDIGWFRQAPGKGREGVSGISSSDGNTYYADSVKGRFTISSDNAKNTVYLQMNSLRPEDTAVYYCAREPPDSSWYLDGSPEFFKYWGQGTLVTVSS |
| 0.000192 s⁻¹ | – | 32C9PMP2_A2 (VHH, name in Kabat numbering, Humanized 32C9 variant) VHH: EVQLVESGGGLVQPGGSLRLSCAASGFTFSDYDIGWFRQAPGKGREGVSGISSSDGNTYYADSVKGRFTISRDNAKNTLYLQMNSLKAEDTAVYYCAAEPPDSSWYLDGSPEFFKYWGQGTQVTVSS |
| – | no binding | 32C9PMP2_E7 (VHH, name in Kabat numbering, Humanized 32C9 variant) VHH: EVQLVESGGGLVQAGGSLRLSCAASGFTFSDYDIGWFRQAPGKEREWVSGISSSDGNTYYADSVKGRFTISRDNAKNTLYLQMNSLRPEDTAVYYCAREPPDSSWYLDGSPEFFKYWGQGTLVTVSS |
| 0.000205 s⁻¹ | – | 32C9PMP1_E1 (VHH, name in Kabat numbering, Humanized 32C9 variant) VHH: EVQLVESGGGLVQAGGSLRLSCAASGFTFSDYDIGWFRQAPGKGREGVSGISSSDGNTYYADSVKGRFTISRDNAKNTLYLQMNSLKAEDTAVYYCAAEPPDSSWYLDGSPEFFKYWGQGTLVTVSS |
| – | no binding | 32C9PMP2_C12 (VHH, name in Kabat numbering, Humanized 32C9 variant) VHH: EVQLVESGGGLVQAGGSLRLSCAASGFTFDDYDIGWVRQAPGKEREWVSGISSSDGNTYYADSVKGRFTISSDNAKNTLYLQMNSLKAEDTAVYYCAREPPDSSWYLDGSPEFFKYWGQGTLVTVSS |
| 0.000187 s⁻¹ | – | 32C9PMP1_E7 (VHH, name in Kabat numbering, Humanized 32C9 variant) VHH: EVQLVESGGGLVQAGGSLRLSCAASGFTFDDYDIGWFRQAPGKGREGVSGISSSDGNTYYADSVKGRFTISSDNAKNTLYLQMNSLKAEDTAVYYCAAEPPDSSWYLDGSPEFFKYWGQGTLVTVSS |
| 0.0052 s⁻¹ | – | 32C9PMP1_C5 (VHH, name in Kabat numbering, Humanized 32C9 variant) VHH: EVQLVESGGGLVQAGGSLRLSCAASGFTFDDYDIGWVRQAPGKELEGVSGISSSDGNTYYADSVKGRFTISSDNAKNTVYLQMNSLRPEDTAVYYCAAEPPDSSWYLDGSPEFFKYWGQGTLVTVSS |
| – | no binding | 32C9PMP2_F5 (VHH, name in Kabat numbering, Humanized 32C9 variant) VHH: EVQLVESGGGLVQPGGSLRLSCAASGFTFDDYDIGWFRQAPGKEREWVSGISSSDGNTYYADSVKGRFTISSDNAKNTLYLQMNSLKAEDTAVYYCAREPPDSSWYLDGSPEFFKYWGQGTLVTVSS |

The remaining lines, values behind:

| Binder | koff [1] | binding result [2] |
| --- | --- | --- |
| 32C9PMP1_A1 (VHH, name in Kabat numbering, Humanized 32C9 variant) VHH: EVQLVESGGGLVQAGGSLRLSCAASGFTFSDYDIGWVRQAPGKEREWVSGISSSDGNTYYADSVKGRFTISSDNAKNTLYLQMNSLRPEDTAVYYCAAEPPDSSWYLDGSPEFFKYWGQGTLVTVSS | 0.00515 s⁻¹ | – |
| 32C9PMP1_B3 (VHH, name in Kabat numbering, Humanized 32C9 variant) VHH: EVQLVESGGGLVQPGGSLRLSCAASGFTFDDYDIGWVRQAPGKELEGVSGISSSDGNTYYADSVKGRFTISSDNAKNTLYLQMNSLRPEDTAVYYCAAEPPDSSWYLDGSPEFFKYWGQGTLVTVSS | 0.00346 s⁻¹ | – |
| 32C9PMP1_G5 (VHH, name in Kabat numbering, Humanized 32C9 variant) VHH: EVQLVESGGGLVQPGGSLRLSCAASGFTFDDYDIGWFRQAPGKELEGVSGISSSDGNTYYADSVKGRFTISRDNAKNTLYLQMNSLRPEDTAVYYCAAEPPDSSWYLDGSPEFFKYWGQGTLVTVSS | 0.00116 s⁻¹ | – |
| 32C9PMP1_E6 (VHH, name in Kabat numbering, Humanized 32C9 variant) VHH: EVQLVESGGGLVQAGGSLRLSCAASGFTFSDYDIGWVRQAPGKGREGVSGISSSDGNTYYADSVKGRFTISSDNAKNTVYLQMNSLKAEDTAVYYCAAEPPDSSWYLDGSPEFFKYWGQGTLVTVSS | 0.000982 s⁻¹ | – |
| 32C9PMP2_D8 (VHH, name in Kabat numbering, Humanized 32C9 variant) VHH: EVQLVESGGGLVQPGGSLRLSCAASGFTFSDYDIGWFRQAPGKEREGVSGISSSDGNTYYADSVKGRFTISRDNAKNTVYLQMNSLKAEDTAVYYCAREPPDSSWYLDGSPEFFKYWGQGTQVTVSS | – | no binding |
| 32C9PMP2_E6 (VHH, name in Kabat numbering, Humanized 32C9 variant) VHH: EVQLVESGGGLVQPGGSLRLSCAASGFTFSDYDIGWFRQAPGKEREGVSGISSSDGNTYYADSVKGRFTISRDNAKNTVYLQMNSLKAEDTAVYYCAREPPDSSWYLDGSPEFFKYWGQGTLVTVSS | – | no binding |
| 32C9PMP2_D5 (VHH, name in Kabat numbering, Humanized 32C9 variant) VHH: EVQLVESGGGLVQPGGSLRLSCAASGFTFDDYDIGWVRQAPGKELEGVSGISSSDGNTYYADSVKGRFTISRDNAKNTVYLQMNSLKAEDTAVYYCAREPPDSSWYLDGSPEFFKYWGQGTLVTVSS | – | no binding |
| 32C9PMP2_F2 (VHH, name in Kabat numbering, Humanized 32C9 variant) VHH: EVQLVESGGGLVQAGGSLRLSCAASGFTFDDYDIGWVRQAPGKEREWVSGISSSDGNTYYADSVKGRFTISSDNAKNTLYLQMNSLRPEDTAVYYCAREPPDSSWYLDGSPEFFKYWGQGTLVTVSS | – | no binding |
| 32C9PMP1_B5 (VHH, name in Kabat numbering, Humanized 32C9 variant) VHH: EVQLVESGGGLVQPGGSLRLSCAASGFTFSDYDIGWFRQAPGKEREWVSGISSSDGNTYYADSVKGRFTISRDNAKNTLYLQMNSLRPEDTAVYYCAAEPPDSSWYLDGSPEFFKYWGQGTQVTVSS | 0.00196 s⁻¹ | – |
| 32C9PMP1_D4 (VHH, name in Kabat numbering, Humanized 32C9 variant) VHH: EVQLVESGGGLVQAGGSLRLSCAASGFTFSDYDIGWFRQAPGKGREGVSGISSSDGNTYYADSVKGRFTISSDNAKNTLYLQMNSLKAEDTAVYYCAAEPPDSSWYLDGSPEFFKYWGQGTQVTVSS | 0.000196 s⁻¹ | – |
| 32C9PMP2_A7 (VHH, name in Kabat numbering, Humanized 32C9 variant) VHH: EVQLVESGGGLVQAGGSLRLSCAASGFTFSDYDIGWVRQAPGKGREGVSGISSSDGNTYYADSVKGRFTISRDNAKNTLYLQMNSLKAEDTAVYYCAAEPPDSSWYLDGSPEFFKYWGQGTLVTVSS | 0.000792 s⁻¹ | – |

Source: patent publication US20100292083A1 (Ablynx, published 2010)
